From doi:10.1101/2024.06.20.599739 (2024)

How the values were obtained:
Experiment in all cases: SPR
linear 11 () = target: linear 11 ()
linear 19 () = target: linear 19 ()
linear 12 () = target: linear 12 ()
linear 15 () = target: linear 15 ()
[1] = target: EvoBind2 linear design, adversarial selection, length 11

- Kd (linear 11 ()): 7.54 µM
- Kd (linear 19 ()): 7.18 µM
- Kd (linear 12 ()): 0.728 µM
- Kd (linear 15 ()): 4.34 µM
B1: MBP-8xHis-1SCC (semi-synthetic Ribonuclease, PDB ID 1SSC) (enzyme)
chain: KETAAAKFERQHMDSSTSAASSSNYCNQMMKSRNLTKDRCKPVNTFVHESLADVQAVCSQKNVACKNGQTNCYQSYSTMSITDCRETGSSKYPNCAYKTTQANKHIIVACEG
- Kd [1]: 1.21 µM
